Assays:
Conditions in all cases: both partners purified
[1] = molecular target: T1, placental growth factor (PlGF) (UniProt P49763 19-221); experiment: SPR; BIACORE 3000; VEGF-B167 and PlGF immobilized on CM5 chip, FC1 blank; conbercept injected at eight two-fold dilutions 31.25 nM to 4000 nM in HBS buffer
T1 chain: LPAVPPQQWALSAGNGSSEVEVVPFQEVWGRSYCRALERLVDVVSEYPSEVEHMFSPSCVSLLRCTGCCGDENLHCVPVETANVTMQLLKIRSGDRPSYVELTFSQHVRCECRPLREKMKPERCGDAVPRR

VEGF-B167 = molecular target: T2, VEGF-B167 (UniProt P49765-2 22-188); experiment: as above
T2 construct: VEGF-B, isoform VEGF-B167; source: bought: R&D
T2 sequence (looked up): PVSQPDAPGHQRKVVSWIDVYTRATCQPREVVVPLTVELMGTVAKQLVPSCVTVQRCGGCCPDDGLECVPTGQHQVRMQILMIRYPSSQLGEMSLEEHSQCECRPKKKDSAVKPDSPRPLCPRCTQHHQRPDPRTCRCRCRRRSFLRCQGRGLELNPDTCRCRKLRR

VEGF-A165 [2] = molecular target: T3, VEGF-A165; experiment: ELISA; antigen (VEGF-A165, VEGF-B167 or PlGF) coated at 4 nM in PBS on PVC plate, blocked with 1% BSA; diluted conbercept added 2 h at room temperature; detected with HRP goat anti-human secondary antibody, absorbance at 450 nm
T3 chain: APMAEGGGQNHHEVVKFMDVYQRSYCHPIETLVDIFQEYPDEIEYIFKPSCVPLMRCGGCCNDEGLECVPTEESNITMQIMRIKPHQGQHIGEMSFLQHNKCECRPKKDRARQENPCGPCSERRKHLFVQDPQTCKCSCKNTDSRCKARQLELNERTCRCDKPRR

VEGF-A165 [3] = molecular target: T3, VEGF-A165; experiment: SPR; BIACORE 3000; VEGF-A isoforms amine-coupled on CM5 chip (about 5,000±500 RU), FC1 blank; conbercept injected at eight two-fold dilutions 1.25 nM to 160 nM in HBS buffer (10 mM HEPES, 0.15 M sodium chloride, 3.4 mM EDTA, 0.005% surfactant P20); 1:1 binding with baseline drift model
VEGF-A121 = molecular target: T4, VEGF-A121; experiment: as above
T4 chain: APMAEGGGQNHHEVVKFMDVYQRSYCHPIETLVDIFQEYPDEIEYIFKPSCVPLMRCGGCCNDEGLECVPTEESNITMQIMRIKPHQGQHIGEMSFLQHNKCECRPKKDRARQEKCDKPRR

Kd [1]: 51.2 nM | koff [1]: 0.00581 s⁻¹ | kon [1]: 114000 M⁻¹ s⁻¹ | Kd (VEGF-B167): 81.8 nM | koff (VEGF-B167): 0.00558 s⁻¹ | kon (VEGF-B167): 68300 M⁻¹ s⁻¹ | EC50 (VEGF-A165 [2]): 0.1 nM | Kd (VEGF-A165 [3]): 5.4 nM | koff (VEGF-A165 [3]): 0.00105 s⁻¹ | kon (VEGF-A165 [3]): 194000 M⁻¹ s⁻¹ | Kd (VEGF-A121): 5.26 nM | koff (VEGF-A121): 0.00105 s⁻¹ | kon (VEGF-A121): 199000 M⁻¹ s⁻¹
B1: conbercept (Fc fusion)
chain: GRPFVEMYSEIPEIIHMTEGRELVIPCRVTSPNITVTLKKFPLDTLIPDGKRIIWDSRKGFIISNATYKEIGLLTCEATVNGHLYKTNYLTHRQTNTIIDVVLSPSHGIELSVGEKLVLNCTARTELNVGIDFNWEYPSSKHQHKKLVNRDLKTQSGSEMKKFLSTLTIDGVTRSDQGLYTCAASSGLMTKKNSTFVRVHEKPFVAFGSGMESLVEATVGERVRIPAKYLGYPPPEIKWYKNGIPLESNHTIKAGHVLTIMEVSERDTGNYTVILTNPISKEKQSHVVSLVVYVPP
modifications: Human IgG1 Fc carrier left out; it dimerises the chain (copies 2). Limits not printed: VEGFR1 Ig2 and VEGFR2 Ig3-4 taken by convention from decoy-receptor boundaries and entry features. Glycosylated …

Reference: PMC3741282, “Novel VEGF Decoy Receptor Fusion Protein Conbercept Targeting Multiple VEGF Isoforms Provide Remarkable Anti-Angiogenesis Effect In Vivo” (PLoS ONE, 2013)
